Assay results: US20170281792A1 (Genentech, published 2017)

Assays:
[1] = target: T1, human mesothelin on cells (endogenous on tumour cell lines and tissue, or stably expressed on A431 or HT1080 … (human, UniProt Q13421 296-580)); experiment: Scatchard analysis (125I-labelled antibody) on HPAC cells, endogenous mesothelin
T1 construct: also called endogenous mesothelin; endogenous human mesothelin
Protocol: (§1) The data was analyzed with non-linear regression curve fitting in the New Ligand program (Genentech, Inc., South San Francisco, Calif.) to estimate Kd values (Munson et al., Anal. Biochem., 107 220-239 (1980)).

[2] = target: T1, human mesothelin on cells (endogenous …); experiment: Scatchard; range for endogenous mesothelin in four pancreatic and two ovarian cell lines
Protocol: as §1

[3] = target: T2, E. coli derived recombinant human mesothelin (human, UniProt Q13421 296-580); experiment: Biacore-2000, IgG over immobilised E. coli derived human mesothelin, 1:1 fit
T2 construct: not shown: N-terminal unizyme His (HQ)-tag
Protocol: 7D9 variants were expressed as IgG by CHO transient transfection. IgG was purified with protein G affinity chromatography. The affinity of each 7D9 IgG variant for human mesothelin was determined by surface plasmon resonance using a BIACORE™-2000. BIACORE™ research grade CM5 chips were immobilized with approximately 110 RU of E. coli derived recombinant human mesothelin using the amine coupling kit from BIACORE™. […] Each sample was analyzed with 5-minute association and 3.5-minute dissociation. After each injection the chip was regenerated using 10 mM Glycine pH 1.7. Binding response was corrected by subtracting the RU from a flow cell with an irrelevant IgG immobilized at similar density. A 1:1 Languir model of simultaneous fitting of kₒₙ and koff was used for kinetics analysis.

[4] = target: T3, gD epitope-tagged human mesothelin expressed on cells (construct #387) (human, UniProt Q13421 296-580); experiment: Scatchard, 125I-labelled antibody on stably transfected BJAB cells
T3 construct: also called gD-human mesothelin; gD-tagged human mesothelin
Protocol: as §1

[5] = target: T1, human mesothelin on cells (endogenous …); experiment: Scatchard analysis (125I-labelled antibody) on AsPC1 cells, endogenous mesothelin
Protocol: as §1

[6] = target: T3, gD epitope-tagged human mesothelin …; experiment: Scatchard, 125I-labelled antibody on stably transfected HT1080 cells
Protocol: as §1

[7] = target: T1, human mesothelin on cells (endogenous …); experiment: Scatchard analysis (125I-labelled antibody) on Capan2 cells, endogenous mesothelin
Protocol: as §1

[8] = target: T4, C-terminally his-tagged human mesothelin expressed in CHO cells (Mono S fractions A11, A12, B1, B5) (human, UniProt Q13421 296-580); experiment: SPR: each Mono S fraction (A11, A12, B1, B5) flowed over a chip with prebound h7D9.v3
T4 construct: also called glycosylated mesothelin; not shown: C-terminal his tag
Description: To determine whether h7D9.v3 binds to glycosylated mesothelin, C-terminally his-tagged human mesothelin was expressed in CHO cells, purified and further separated according to charge on a Mono S column into fractions with high (fraction A11), medium (A12), low (B1) and low-to-none (B5) glycosylation of mesothelin, as shown by Coomassie Blue staining on an SDS-PAGE gel. (FIG. 20, top left). […] (FIG. 20, right).

[9] = target: T5, gD epitope-tagged rat mesothelin expressed on cells (rat, UniProt Q9ERA7 298-582); experiment: immunoprecipitation from BJAB cells stably expressing gD-tagged rat mesothelin, Western blot with murine anti-gD
T5 sequence: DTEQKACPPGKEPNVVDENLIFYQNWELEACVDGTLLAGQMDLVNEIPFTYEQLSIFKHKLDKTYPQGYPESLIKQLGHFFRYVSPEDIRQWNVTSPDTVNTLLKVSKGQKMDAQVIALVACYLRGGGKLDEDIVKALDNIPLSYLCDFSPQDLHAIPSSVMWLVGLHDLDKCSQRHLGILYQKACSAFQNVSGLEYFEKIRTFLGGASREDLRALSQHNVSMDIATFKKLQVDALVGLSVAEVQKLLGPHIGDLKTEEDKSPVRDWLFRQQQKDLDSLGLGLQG

[10] = target: T1, human mesothelin on cells (endogenous …); experiment: Scatchard analysis (125I-labelled antibody) on HPAF-II cells, endogenous mesothelin
Protocol: as §1

[11] = target: T1, human mesothelin on cells (endogenous …); experiment: Scatchard analysis (125I-labelled antibody) on OvCar3 cells, endogenous mesothelin
Protocol: as §1

[12] = target: T6, gD epitope-tagged mouse mesothelin expressed on cells (construct #385) (mouse, UniProt Q61468 298-582); experiment: FACS on stably transfected 293 cells
T6 sequence: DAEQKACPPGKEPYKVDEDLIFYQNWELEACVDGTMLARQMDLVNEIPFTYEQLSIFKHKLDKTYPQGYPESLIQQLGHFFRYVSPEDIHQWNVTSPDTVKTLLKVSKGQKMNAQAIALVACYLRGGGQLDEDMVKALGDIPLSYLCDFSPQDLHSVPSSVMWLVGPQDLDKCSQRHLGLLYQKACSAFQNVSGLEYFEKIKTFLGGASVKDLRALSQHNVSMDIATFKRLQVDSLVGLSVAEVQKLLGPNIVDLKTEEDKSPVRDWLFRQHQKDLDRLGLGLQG
Protocol: Monoclonal antibodies were tested to determine if they cross-react with mesothelin from species other than human. […] Shaded residues are identical between at least two species. Unshaded residues differ between at least two of the four species. […] Anti-gD staining verified that mouse mesothelin was indeed expressed.

[13] = target: T7, gD epitope-tagged cynomolgus monkey mesothelin expressed on cells (construct #383) (cynomolgus monkey); experiment: immunoprecipitation from BJAB cells stably expressing gD-tagged cyno mesothelin, Western blot with murine anti-gD
T7 construct: also called cyno mesothelin
T7 chain: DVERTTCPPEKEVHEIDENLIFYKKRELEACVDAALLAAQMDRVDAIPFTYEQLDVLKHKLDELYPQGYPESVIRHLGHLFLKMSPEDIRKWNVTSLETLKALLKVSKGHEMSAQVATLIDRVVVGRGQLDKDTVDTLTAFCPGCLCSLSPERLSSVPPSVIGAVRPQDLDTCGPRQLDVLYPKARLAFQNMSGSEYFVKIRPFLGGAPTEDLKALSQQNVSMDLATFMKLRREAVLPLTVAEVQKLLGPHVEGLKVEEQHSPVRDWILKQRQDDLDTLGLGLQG

[14] = target: T3, gD epitope-tagged human mesothelin …; experiment: Scatchard, 125I-labelled antibody on stably transfected 293 cells
Protocol: as §1

[15] = target: T1, human mesothelin on cells (endogenous …); experiment: Scatchard analysis (125I-labelled antibody) on OvCar3x2.1 cells, endogenous mesothelin
Protocol: as §1

[16] = target: T6, gD epitope-tagged mouse mesothelin …; experiment: FACS on transiently transfected 293 cells
[17] = target: T7, gD epitope-tagged cynomolgus monkey …; experiment: FACS on transiently transfected 293 cells
[18] = target: T2, E. coli derived recombinant human …; experiment: Biacore (column 'Kd (nM) Biacore'); antigen preparation not given, the filing's Biacore assays use E. coli derived human mesothelin

T1 sequence (Q13421 other isoform, or with tags, fused parts or gaps): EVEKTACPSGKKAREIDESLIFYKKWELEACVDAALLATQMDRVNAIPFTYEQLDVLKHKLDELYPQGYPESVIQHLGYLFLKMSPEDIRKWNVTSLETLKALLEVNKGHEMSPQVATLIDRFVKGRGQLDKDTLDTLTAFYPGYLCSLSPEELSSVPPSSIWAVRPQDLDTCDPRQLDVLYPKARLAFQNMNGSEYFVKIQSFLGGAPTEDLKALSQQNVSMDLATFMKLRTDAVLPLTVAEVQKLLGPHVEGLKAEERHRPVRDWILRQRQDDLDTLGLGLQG
T3 sequence (Q13421 other isoform, or with tags, fused parts or gaps): as above
T2 sequence (Q13421 other isoform, or with tags, fused parts or gaps): as above
T4 sequence (Q13421 other isoform, or with tags, fused parts or gaps limits assumed): as the sequence (Q13421 other isoform, or with tags, fused parts or gaps) above

| Binder | Kd [1] | Kd [2] | Kd [3] | Kd [4] | Kd [5] | Kd [6] | Kd [7] | Kd [8] | binding result [9] | Kd [10] | Kd [11] | binding result [12] | binding result [13] | Kd [14] | Kd [15] | binding result [16] | binding result [17] | Kd [18] |
| --- | --- | --- | --- | --- | --- | --- | --- | --- | --- | --- | --- | --- | --- | --- | --- | --- | --- | --- |
| humanized monoclonal antibody 7D9.v3 (antibody, V domains shown, also called h7D9.v3; hu7D9.v3) VH: EVQLVESGGGLVQPGGSLRLSCAASGYTFTTYWMHWVRQAPGKGLEWVGYIRPSTGYTEYNQKFKDRFTISADTSKNTAYLQMNSLRAEDTAVYYCARSRWLLDYWGQGTLVTVS VL: DIQMTQSPSSLSASVGDRVTITCKSSQSVLYSSNQKNYLAWFQQKPGKAPKLLIYWASTRESGVPSRFSGSGSGTDFTLTISSLQPEDFATYFCHQYLSSYTFGQGTKVEIKR | 1 nM | 0.41 to 1 nM | 1.9 nM | 0.25 nM | 0.58 nM | 0.97 nM | 0.63 nM | 1.5 nM | no binding | 0.41 nM | 0.53 nM | no binding (tested: 10 µg/ml) | no binding | 0.2 nM | 0.56 nM |  |  |  |
| mouse monoclonal antibody 7D9 (antibody, V domains shown, also called m7D9; mu7D9) VH: QVQLQQSGAELAKPGASVKMSCKASGYTFTTYWMHWVKQRPGQGLEWIGYIRPSTGYTEYNQKFKDKATLTADKSSSTAYMQLSSLTSEDSTVYYCARSRWLLDYWGQGTSLTVS VL: DIMMTQSPSSLAVSAGEKVTMSCKSSQSVLYSSNQKNYLAWFQQKPGQSPKLLIYWASTRESGVPDRFTGSGSGTDFTLTISSVQAEDLAVYFCHQYLSSYTFGGGTKVEIK |  |  |  |  |  |  |  |  |  |  |  |  |  |  |  | no binding (tested: 0.02 µg/ml) | no binding (tested: 0.02 µg/ml) | 0.23 nM |
